The source of these data is patent US20200139362A1, “Proto-Antigen-Presenting Synthetic Surfaces, Activated T Cells, and Uses Thereof” (Berkeley Lights, Inc., priority 2018, published 2020).

Square brackets hold non-standard residues; d marks the D form. Ends that are not written are not given here.

Assay [1] concerns the target T1, HLA-A*02:01 (Homo sapiens, UniProt P04439, D140Y/D185E/D98H/E176V/E277Q/G131W/G231S/I119V/I121R/I166T/I218V/L300P/L318F/N151K/N90K/P208A/P217A/Q86G/Q94H/R138H/R169H/T345S). Nature of the assay: Peptide switching (exchange) on peptide-HLA-A*02:01 complex, anti-DNP antibody flow cytometry. The conditions noted are these: 20 micromolar peptide, 1 micromolar HLA-A*02:01 with DNP-labelled initial peptide LMYAKRAFV, 1 mM Glycl-Methionine, room temperature 4 hours; relative to control peptide […] set as 100%. In kind it is binding. Here is the method: To test binding of Immunogenic and Non-Immunogenic peptides to an MHC Class I complex, a peptide-HLA-A*02:01 complex with an initial peptide LMYAKRAFV (SEQ ID NO: 4) in the peptide binding groove was purchased. The initial peptide included a dinitrophenyl (DNP) moiety conjugated to the lysine at position 5. Two peptide antigens were then tested for their ability to bind to the MHC Class I complex: SLYSYFQKV (SEQ ID NO: 5) derived from SLC45A2 and SLLPIMwQLY (SEQ ID NO: 6) derived from TCL1. The peptides were resuspended in DMSO to 5 mg/mL. The peptides were then further diluted ten-fold in PBS. […]
Samples of unswitched peptide-MHC and switched peptide-MHC were then captured on Streptavidin-coated DynaBeads (ThermoFisher). […] The peptide-MHC beads were then stored at 4° C. until they were analyzed for peptide exchange.
To quantify peptide exchange, a FITC-conjugated anti-DNP antibody specific for the DNP-conjugated initial peptide was added to a sample of each captured peptide-MHC. […] The staining for pre-assembled peptide and intact pHLA complexes were detected by Flow Cytometry on a FACSCelesta with High-Throughput Sampler (BD Biosciences). […] Approximately 5,000 bead events were recorded for each sample. The Median Fluorescence Intensity (MFI) in the APC and FITC channels of each sample was then recorded. […]
Background: A flow cytometer gives signals particle by particle.

Assay [2] addresses T1, HLA-A*02:01. Nature of the assay: Peptide binding and stability of pMHC complexes under culture conditions (W6/32 antibody, flow cytometry). The conditions noted are these: pMHC on Streptavidin DynaBeads in T Cell Culture Media at 37° C.; exponential decay fit of APC MFI. Here is the method:
To assess the stability of the pMHC Class I-peptide antigen complexes under the conditions that are used to culture T Cells, pMHC Class I complexes were first bound to beads. Biotinylated HLA-A*02:01 complexes loaded with either SLYSYFQKV (SEQ ID NO: 5) or SLLPIMwQLY (SEQ ID NO: 6) peptides were diluted to 0.83 micrograms/mL in Assay Buffer (PBS with 2 mM EDTA and 0.1% Bovine Serum Albumin). To 0.6 mL of the pMHC solutions in microcentrifuge tubes, 10^7 Streptavidin-coated DynaBeads (M-280, ThermoFisher) were added. The beads were mixed in the pMHC solution for 4 minutes at 2,000 rpm on a ThermoMixer (Eppendorf). The pMHC-beads were then captured on a magnetic rack, and the solution containing unbound pMHC removed by aspiration. 1 mL of Assay Buffer was added to the tubes, and then aspirated. The beads were then resuspended in 0.1 mL of Assay Buffer. The beads were then stored at 4° C. until use. […]
Antibody binding to the beads was then detected on a FACSCelesta with High-Throughput Sampler (BD Biosciences). […] Approximately 25,000 bead events were recorded for each sample. The Median Fluorescence Intensity (MFI) in the APC channel for the pHLA-beads in each sample was then recorded. […] The half-lives for the pHLA complexes were then calculated from the fitted decay constant.

As for “SLYSYFQKV (SLC45A2-derived peptide) [immunogenic peptide antigen derived from SLC45A2]”, the percent peptide switching result in assay [1] is “about 99%”. In assay [2], the “half-life of peptide-HLA-A*02:01 complex” value is recorded as “about 17 hours”.

As for “SLLPIMwQLY (SLLPIM[dW]QLY) [TCL1-derived peptide, non-immunogenic peptide antigen derived from TCL1]”, the percent peptide switching result in assay [1] is given as “about 90%”. Besides, the “half-life of peptide-HLA-A*02:01 complex” value in assay [2] is listed as “about 0.5 hours”.
